Starred links: 1 amine or outer side, 2 acyl side, 3 side chain; linkers in the order of their positions; H or OH if unused. Positions of bridges follow the written chain, without caps; N, C: chain ends. Non-standard residues stand in square brackets, D forms with d. No end group written: not given here. *: point of attachment. X1 = 3‑(7-(3-acetamidophenyl)-1H-indol-3-yl)‑2‑aminopropanoic acid, CC(=O)Nc1cccc(-c2cccc3c(CC(N[*:1])C(=O)[*:2])c[nH]c23)c1; X3 = 4‑(2-(4-(2-amino-2-carboxyethyl)phenoxy)ethyl)‑4‑methylmorpholin‑4‑ium, C[N+]1(CCOc2ccc(CC(N[*:1])C(=O)[*:2])cc2)CCOCC1; X10 = 2‑amino‑3‑(4-(2-guanidinoethoxy)phenyl)propanoic acid, N=C(N)NCCOc1ccc(CC(N[*:1])C(=O)[*:2])cc1; X11 = 2‑amino‑3‑(2-hydroxyquinolin-6-yl)propanoic acid, O=C(C(Cc1ccc2nc(O[*:3])ccc2c1)N[*:1])[*:2]; X7 = 2‑amino‑3‑(5-methylpyridin-3-yl)propanoic acid, Cc1cncc(CC(N[*:1])C(=O)[*:2])c1; Trp(7-(3-AcNH-Ph)) = CC(=O)Nc1cccc(-c2cccc3c(C[C@H](N)C(=O)O)c[nH]c23)c1; 2Nal(6-OH) = N[C@@H](Cc1ccc2cc(O)ccc2c1)C(=O)O; Trp(7-Me) = Cc1cccc2c(C[C@H](N)C(=O)O)c[nH]c12; dLys(Me3) = C[N+](C)(C)CCCC[C@@H](N)C(=O)O; AEF = NCCOc1ccc(C[C@H](N)C(=O)O)cc1; 3Pal = N[C@@H](Cc1cccnc1)C(=O)O; Pen = CC(C)(S)[C@H](N)C(=O)O; αMeC = C[C@](N)(CS)C(=O)O; Thp = NC1(C(=O)O)CCOCC1; Abu = CC[C@H](N)C(=O)O; Propionyl = CCC(=O)*; Sar = CNCC(=O)O
T1: interleukin-23 receptor (IL-23R), Q5VWK5
T1 chain: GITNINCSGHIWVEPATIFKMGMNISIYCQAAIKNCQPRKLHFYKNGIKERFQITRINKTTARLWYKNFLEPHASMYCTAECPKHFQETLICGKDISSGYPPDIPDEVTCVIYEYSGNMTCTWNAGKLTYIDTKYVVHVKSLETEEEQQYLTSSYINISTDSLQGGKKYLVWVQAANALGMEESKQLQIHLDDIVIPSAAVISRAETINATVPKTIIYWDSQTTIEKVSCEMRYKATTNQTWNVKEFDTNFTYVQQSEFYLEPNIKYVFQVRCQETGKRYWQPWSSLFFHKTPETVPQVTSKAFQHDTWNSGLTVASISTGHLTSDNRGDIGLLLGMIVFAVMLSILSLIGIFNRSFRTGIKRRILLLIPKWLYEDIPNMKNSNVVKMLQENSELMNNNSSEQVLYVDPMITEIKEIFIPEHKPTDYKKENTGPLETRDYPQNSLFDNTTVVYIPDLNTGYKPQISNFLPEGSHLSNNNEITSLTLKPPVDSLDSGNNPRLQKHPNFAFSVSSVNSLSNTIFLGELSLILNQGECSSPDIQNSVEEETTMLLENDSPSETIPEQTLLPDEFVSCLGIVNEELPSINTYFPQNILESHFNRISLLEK

B1: SEQ ID NO: 89 (peptide)
peptide: R[Pen]KT[Trp(7-Me)]K(Ac)[Pen][2‑amino‑3‑(4-(2-aminoethoxy)phenyl)propanoic acid][2‑amino‑3‑(6-hydroxynaphthalen-2-yl)propanoic acid][Thp]EN[3Pal][Sar]
modifications: disulfide 2-7 (inferred); not fully specified (residue 3); ends not checked; also: K3: lipidated lysine, lipid not given here
B2: SEQ ID NO: 90 (peptide)
peptide: K[Pen]NT[Trp(7-Me)]K(Ac)[Pen][2‑amino‑3‑(4-(2-aminoethoxy)phenyl)propanoic acid][2‑amino‑3‑(6-hydroxynaphthalen-2-yl)propanoic acid][Thp]EN[3Pal][Sar]
modifications: disulfide 2-7 (inferred); not fully specified (residue 1); ends not checked; also: K1: lipidated lysine, lipid not given here
B3: SEQ ID NO: 91 (peptide)
peptide: K[Pen]NT[Trp(7-Me)]K(Ac)[Pen][2‑amino‑3‑(4-(2-aminoethoxy)phenyl)propanoic acid][2‑amino‑3‑(6-hydroxynaphthalen-2-yl)propanoic acid][Thp]EN[3Pal][Sar]
modifications: disulfide 2-7 (inferred); not fully specified (residue 1); ends not checked; also: K1: lipidated lysine, lipid not given here
B4: SEQ ID NO: 92 (peptide)
peptide: R[Pen]NT[Trp(7-Me)]K(Ac)[Pen][2‑amino‑3‑(4-(2-aminoethoxy)phenyl)propanoic acid][2‑amino‑3‑(6-hydroxynaphthalen-2-yl)propanoic acid][Thp]EN[3Pal][Sar]K
modifications: disulfide 2-7 (inferred); not fully specified (residue 15); ends not checked; also: K15: lipidated lysine, lipid not given here
B5: SEQ ID NO: 95 (peptide)
peptide: [Pen]NT[Trp(7-Me)]K(Ac)[Pen][AEF][2Nal(6-OH)][Thp]KN[3Pal][Sar]
modifications: disulfide 1-6 (inferred); not fully specified (residue 10); ends not checked; also: K10: lipidated lysine, lipid not given here
B6: SEQ ID NO: 120 (peptide)
peptide: R[Pen]NT[Trp(7-Me)]K[Pen][AEF][2Nal(6-OH)][Thp]EN[3Pal][Sar]
modifications: disulfide 2-7 (inferred); ends not checked; also: K6: lipidated lysine, lipid not given here
B7: SEQ ID NO: 130 (peptide)
peptide: [Pen]NT[Trp(7-Me)]K[Pen][AEF][2Nal(6-OH)][Thp]K(Ac)N[3Pal][Sar]
modifications: disulfide 1-6 (inferred); ends not checked; also: K5: lipidated lysine, lipid not given here
B8: SEQ ID NO: 152 (peptide)
peptide: [Pen]NT[X1]K[Pen][2‑amino‑3‑(4-(2-aminoethoxy)phenyl)propanoic acid][2‑amino‑3‑(6-hydroxynaphthalen-2-yl)propanoic acid][Thp]K(Ac)N[3Pal][Sar]
modifications: disulfide 1-6 (inferred); ends not checked; also: Lys5: lipidated lysine, lipid not given here
B9: SEQ ID NO: 154 (peptide)
peptide: R[Pen]NT[X1]K[Pen][2‑amino‑3‑(4-(2-aminoethoxy)phenyl)propanoic acid][2‑amino‑3‑(6-hydroxynaphthalen-2-yl)propanoic acid][Thp]EN[3Pal][Sar]
modifications: disulfide 2-7 (inferred); ends not checked; also: K6: lipidated lysine, lipid not given here

Target: T1, interleukin-23 receptor (IL-23R), Q5VWK5
Assay: cell-based or functional assay

Row | Binder | IL23R Reporter Assay IC50 | PBMC pSTAT3 IC50
1 | [dK](Me3)[Abu]NTWK(Ac)[αMeC][X10][2Nal(6-OH)][Thp]EN[3Pal][Sar] (ends and bridges not checked) [SEQ ID NO: 1] | < 10 nM | –
2 | [dK](Propionyl)[Abu]NTWQC[AEF][2Nal(6-OH)][Thp]CN[3Pal][Sar] (ends and bridges not checked) [SEQ ID NO: 10] | < 10 nM | < 10 pM
3 | B1 | < 10 nM | < 0.1 nM
4 | B2 | < 10 nM | < 0.1 nM
5 | B3 | < 10 nM | < 0.1 nM
6 | B4 | < 10 nM | < 0.1 nM
7 | R[Pen]NT[Trp(7-Me)]K(Ac)[Pen][AEF][2Nal(6-OH)][Thp]EN[3Pal][Sar] (disulfide 2-7 (inferred); ends not checked) [SEQ ID NO: 94] | < 10 nM | < 1 nM
8 | B5 | < 10 nM | < 0.1 nM
9 | [Abu]NTWQC[AEF][2Nal(6-OH)][Thp]EN[3Pal][Sar] (ends and bridges not checked) [SEQ ID NO: 98] | < 10 nM | < 10 pM
10 | [Pen]NT[Trp(7-(3-AcNH-Ph))]K(Ac)[Pen][X3][2Nal(6-OH)][Thp]EN[3Pal][Sar] (disulfide 1-6 (inferred); ends not checked) [SEQ ID NO: 100] | < 10 nM | < 10 pM
11 | B6 | > 100 nM | < 1 nM
12 | [Pen]NT[X1]K(Ac)[Pen][X10][2‑amino‑3‑(6-hydroxynaphthalen-2-yl)propanoic acid][Thp]EN[X7][Sar] (ends and bridges not checked) [SEQ ID NO: 16] | < 10 nM | < 10 pM
13 | B7 | > 100 nM | < 1 nM
14 | [Pen]NT[X1]K(Ac)[Pen][AEF][2Nal(6-OH)][Thp]EN[3Pal][Sar] (disulfide 1-6 (inferred); ends not checked) [SEQ ID NO: 132] | < 10 nM | < 10 pM
15 | R[Pen]ET[Trp(7-Me)]K(Ac)[Pen][AEF][2Nal(6-OH)][Thp]EN[3Pal][Sar] (disulfide 2-7 (inferred); ends not checked) [SEQ ID NO: 136] | < 10 nM | < 10 pM
16 | R[Pen]ET[Trp(7-Me)]K(Ac)[Pen][AEF][2Nal(6-OH)][Thp]EN[3Pal][Sar] (disulfide 2-7 (inferred); ends not checked) [SEQ ID NO: 137] | < 10 nM | < 10 pM
17 | [dLys(Me3)][Pen]NT[X1]K(Ac)[Pen][5‑(4-(2-amino-2-carboxyethyl)phenoxy)‑N,N,N‑trimethylpentan‑1‑aminium][2‑amino‑3‑(6-hydroxynaphthalen-2-yl)propanoic acid][Thp]EN[X7][Sar] (ends and bridges not checked) [SEQ ID NO: 17] | < 10 nM | < 10 pM
18 | [Pen]NT[Trp(7-Me)]K(Ac)[Pen][2‑amino‑3‑(4-(2-aminoethoxy)phenyl)propanoic acid][X11][Thp]EN[3Pal][Sar] (disulfide 1-6 (inferred); ends not checked) [SEQ ID NO: 149] | < 10 nM | < 0.1 nM
19 | B8 | > 100 nM | < 1 nM
20 | B9 | > 100 nM | < 1 nM
21 | RCNT[X1]K(Ac)[αMeC][2‑amino‑3‑(4-(2-aminoethoxy)phenyl)propanoic acid][2‑amino‑3‑(6-hydroxynaphthalen-2-yl)propanoic acid][Thp]EN[3Pal][Sar] (ends and bridges not checked) [SEQ ID NO: 2] | < 10 nM | –
22 | R[Pen]NT[X1]K(Ac)[Pen][5‑(4-(2-amino-2-carboxyethyl)phenoxy)‑N,N,N‑trimethylpentan‑1‑aminium][2‑amino‑3‑(6-hydroxynaphthalen-2-yl)propanoic acid][Thp]EN[X7][Sar] (ends and bridges not checked) [SEQ ID NO: 20] | < 10 nM | < 0.1 nM
23 | R[Pen]ET[X1]K(Ac)[Pen][2‑amino‑3‑(4-(2-aminoethoxy)phenyl)propanoic acid][2‑amino‑3‑(6-hydroxynaphthalen-2-yl)propanoic acid][Thp]EN[3Pal][Sar] (disulfide 2-7 (inferred); ends not checked) [SEQ ID NO: 157] | < 10 nM | < 10 pM

Reference: patent US20240279281A1, “Peptide Inhibitors of Interleukin-23 Receptor” (Janssen Pharmaceutica NV, priority 2023, published 2024)
